{"source": "paper PMC4346194", "key": {"[1]": {"molecular_target": "GST-tagged FL-importin α1 (mouse) (UniProt P52293)", "assay": "pull-down"}, "[2]": {"molecular_target": "GST-tagged FL-importin α7 (human) (UniProt O60684)", "assay": "pull-down"}}}
{"substance": "MBP-tagged PB2-NLD-K718A (from UniProt P31345 678-759) (domain or fragment)", "values": [{"measurement": "percent of importin α bound to cargo", "setting": "[1]", "value": 20, "unit": "%"}, {"measurement": "percent of importin α bound to cargo", "setting": "[2]", "value": 43, "unit": "%"}]}
